Numbering of substitutions follows the chain as printed. Like-named read-outs stand apart in the source and are kept apart here. Each block holds one binder with its values, some of them ahead of it.
What was measured:
[1] = molecular target: T1, human alpha-synuclein monomer (human, UniProt P37840 1-140); test: direct ELISA, plate coated with 1 µg/mL recombinant human alpha-synuclein, antibody titrated, anti-rat HRP, A450
[2] = molecular target: alpha-synuclein peptide 1-112 (human); test: peptide ELISA
[3] = molecular target: T2, alpha-synuclein peptide 1-61 (human); test: peptide ELISA
T2 construct: synthetic peptide coated on plate

[4] = molecular target: T3, alpha-synuclein peptide 1-95 (human); test: peptide ELISA
T3 construct: synthetic peptide coated on plate

[5] = molecular target: T1, human alpha-synuclein monomer; test: ELISA, coated human alpha-synuclein
[6] = molecular target: T4, beta-synuclein protein (human, UniProt Q16143 1-134); test: ELISA on coated synuclein, 1 ug/mL
T4 construct: species read from 'recombinant human alpha-synuclein protein, beta-synuclein protein, and gamma-synuclein protein'

[7] = molecular target: T5, gamma-synuclein protein (human, UniProt O76070 1-127); test: ELISA on coated synuclein, 1 ug/mL
T5 construct: species read from 'recombinant human alpha-synuclein protein, beta-synuclein protein, and gamma-synuclein protein'

[8] = molecular target: T6, mouse alpha-synuclein (mouse, UniProt O55042 1-140); test: ELISA, coated mouse alpha-synuclein
[9] = molecular target: alpha-synuclein phosphorylated at serine 129 (human, UniProt P37840 1-140); test: SPR (Biacore), antibody captured, p129-Syn injected
[10] = molecular target: T1, human alpha-synuclein monomer; test: direct ELISA on coated antigen;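 further: plates coated with recombinant human, mouse or rat alpha-synuclein, purified antibody titrated 10 µg/mL down to 0.6 ng/mL for 1 h, bound antibody detected by anti-rat HRP with TMB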
[11] = molecular target: T6, mouse alpha-synuclein; test: direct ELISA on coated antigen;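 further: plates coated with recombinant human, mouse or rat alpha-synuclein, purified antibody titrated 10 µg/mL down to 0.6 ng/mL for 1 h, bound antibody detected by anti-rat HRP with TMB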
[12] = molecular target: T7, rat alpha-synuclein (rat, UniProt P37377 1-140); test: direct ELISA on coated antigen;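 further: plates coated with recombinant human, mouse or rat alpha-synuclein, purified antibody titrated 10 µg/mL down to 0.6 ng/mL for 1 h, bound antibody detected by anti-rat HRP with TMB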
[13] = molecular target: T8, alpha-synuclein peptide 95-140 (human); test: peptide ELISA, coated fragment
T8 construct: synthetic peptide coated on plate

[14] = molecular target: T9, alpha-synuclein peptide 61-140 (human); test: peptide ELISA, coated fragment
T9 construct: synthetic peptide coated on plate

[15] = molecular target: human alpha-synuclein oligomers (human, UniProt P37840 1-140); test: competition ELISA: oligomers titrated in solution against 0.6 nM antibody, free antibody read on aSyn-coated plate
[16] = molecular target: human alpha-synuclein pre-formed fibrils (human, UniProt P37840 1-140); test: competition ELISA: fibrils titrated in solution against 0.6 nM antibody, free antibody read on aSyn-coated plate
[17] = molecular target: T1, human alpha-synuclein monomer; test: ELISA, plate coated with the peptide or protein, antibody titrated, anti-rat HRP, A450
[18] = molecular target: T8, alpha-synuclein peptide 95-140; test: as above
[19] = molecular target: alpha-synuclein peptide 1-112 (human); test: as above
[20] = molecular target: T2, alpha-synuclein peptide 1-61; test: as above
[21] = molecular target: T3, alpha-synuclein peptide 1-95; test: as above
[22] = molecular target: T9, alpha-synuclein peptide 61-140; test: as above
[23] = molecular target: T1, human alpha-synuclein monomer; test: SPR (Biacore), antibody captured, monomer injected, 1:1 fit
[24] = molecular target: T8, alpha-synuclein peptide 95-140; test: ELISA, plate coated with the peptide or protein, antibody titrated, anti-rat HRP, A450; remark: listed apart in the source
[25] = molecular target: T2, alpha-synuclein peptide 1-61; test: as above; remark: listed apart in the source
[26] = molecular target: T6, mouse alpha-synuclein; test: direct ELISA, plate coated with 1 µg/mL recombinant mouse alpha-synuclein, antibody titrated, anti-rat HRP, A450
[27] = molecular target: T1, human alpha-synuclein monomer; test: ELISA, plate coated with the peptide or protein, antibody titrated, anti-rat HRP, A450; remark: listed apart in the source
[28] = molecular target: T8, alpha-synuclein peptide 95-140; test: as above; remark: listed apart in the source
[29] = molecular target: T2, alpha-synuclein peptide 1-61; test: as above; remark: listed apart in the source
[30] = molecular target: T3, alpha-synuclein peptide 1-95; test: as above; remark: listed apart in the source
[31] = molecular target: T6, mouse alpha-synuclein; test: as above
[32] = molecular target: T9, alpha-synuclein peptide 61-140; test: as above; remark: listed apart in the source
[33] = molecular target: alpha-synuclein peptide 1-112 (human); test: peptide ELISA, coated fragment
[34] = molecular target: T7, rat alpha-synuclein; test: direct ELISA, plate coated with 1 µg/mL recombinant rat alpha-synuclein, antibody titrated, anti-rat HRP, A450
[35] = molecular target: alpha-synuclein peptide 1-112 (human); test: ELISA, plate coated with the peptide or protein, antibody titrated, anti-rat HRP, A450; remark: listed apart in the source
[36] = molecular target: T2, alpha-synuclein peptide 1-61; test: as above; remark: listed apart in the source
[37] = molecular target: T3, alpha-synuclein peptide 1-95; test: as above; remark: listed apart in the source
[38] = molecular target: T6, mouse alpha-synuclein; test: as above; remark: listed apart in the source

EC50 (read off the curve) [1]: ~0.2 µg/mL | antibody concentration at which ELISA is positive [2]: > 2600 ng/mL | antibody concentration at which ELISA is positive [3]: > 2600 ng/mL | antibody concentration at which ELISA is positive [4]: > 2600 ng/mL | antibody concentration at which ELISA is positive [5]: < 40 ng/mL | binding result [6]: no binding | binding result [7]: no binding | antibody concentration at which ELISA is positive [8]: 640 to 2600 ng/mL | Kd [9]: 23.7 nM | koff [9]: 0.00113 s⁻¹ | kon [9]: 47500 M⁻¹ s⁻¹ | Bmax (O.D. at 450 nm) [10]: 1.14 OD | EC50 [10]: 0.15 nM | Bmax (O.D. at 450 nm) [11]: 0.16 OD | EC50 [11]: 5.86 nM | Bmax (O.D. at 450 nm) [12]: 0.2 OD | EC50 [12]: 2.97 nM | antibody concentration at which ELISA is positive [13]: < 40 ng/mL | antibody concentration at which ELISA is positive [14]: < 40 ng/mL | IC50 [15]: 30.7 nM | IC50 [16]: 5.86 nM | EC50 (read off the curve) [17]: ~0.2 µg/mL | EC50 (read off the curve) [18]: ~0.3 µg/mL | EC50 (read off the curve) [22]: ~0.2 µg/mL | Kd [23]: 16.2 nM | koff [23]: 0.00169 s⁻¹ | kon [23]: 104000 M⁻¹ s⁻¹
B1: 1H5 (antibody, rat IgG2b, V domains shown)
VH: AVQLVESGGGLVQPKESLKISCAASGFTFSDAAMYWVRQAPGKGLELVARIRTKPNNYATYYADSVKGRFTISRDDSKSMVYLQMGNLKTEDTAMYYCSADFHYFDYWGQGVMVTVSS
VL: DIQMTQSPSVLSASVGDRVTLSCKAGQNINKNLDWYQQKLGEAPKLLISFTNNLQTGVPSRFSGSGSGSDYTLTISSLQPEDVATYYCYQYNSGWTFGGGTKLELK
notes: also called clone 1H5
binding result [19]: no binding (tested: 10 µg/ml (1 on the log axis)) | binding result [20]: no binding (tested: 10 µg/ml (1 on the log axis)) | binding result [21]: no binding (tested: 10 µg/ml (1 on the log axis))

antibody concentration at which ELISA is positive [3]: > 2600 ng/mL | antibody concentration at which ELISA is positive [13]: < 40 ng/mL | EC50 (read off the curve) [24]: ~0.3 µg/mL
B2: 16F3 (antibody, IgG2a, V domains shown)
VH: AVQLVESGGGLVQPKESLKISCAASGFTFSNGAMNWVRQAPGKGLEWVARIRTKPNNYATYYADSVKGRFTISRDDSKSMVYLQMDDLKTEDTAMYYCTADGATPFAYWGQGTLVTVSS
VL: DVVLTQTPPTLSATIGQSVSISCRSSQSLLHSNGNTYLHWLLQRPGQSPQLLIYLVSRLESGVPNRFSGSGSGTDFTLKISGVEAEDLGVYYCVQGTHAPFTFGSGTKLEIK
notes: also called clone 16F3
binding result [25]: no binding (tested: 10 µg/ml (1 on the log axis))

EC50 (read off the curve) [1]: ~0.06 µg/mL | antibody concentration at which ELISA is positive [3]: > 2600 ng/mL | antibody concentration at which ELISA is positive [4]: > 2600 ng/mL | EC50 (read off the curve) [26]: ~0.08 µg/mL | antibody concentration at which ELISA is positive [5]: < 40 ng/mL | antibody concentration at which ELISA is positive [8]: 40 to 160 ng/mL | Bmax (O.D. at 450 nm) [10]: 1.36 OD | EC50 [10]: 0.05 nM | EC50 [11]: 0.08 nM | Bmax (O.D. at 450 nm) [12]: 1.21 OD | EC50 [12]: 0.3 nM | EC50 (read off the curve) [27]: ~0.06 µg/mL | EC50 (read off the curve) [28]: ~0.07 µg/mL | EC50 (read off the curve) [31]: ~0.08 µg/mL | EC50 (read off the curve) [32]: ~0.08 µg/mL | antibody concentration at which ELISA is positive [13]: < 40 ng/mL | antibody concentration at which ELISA is positive [33]: 160 to 640 ng/mL | antibody concentration at which ELISA is positive [14]: < 40 ng/mL | IC50 [15]: 37.6 nM | IC50 [16]: 85.7 nM | EC50 (read off the curve) [34]: ~0.4 µg/mL
B3: 18B4 (antibody, IgG2b, V domains shown)
VH: EVQLVESGGGLVQPGRSLKLSCAASGFTFSSFAMAWVRQAPKKGLEWVATITSGGSKTYYPDSVKGRFTISRDNAKSTLYLQMDSLRSEDTATYYCAKGYFDYWGQGVMVTVSS
VL: B2 VL with F101L
notes: also called clone 18B4
binding result [29]: no binding (tested: 10 µg/ml (1 on the log axis)) | binding result [30]: no binding (tested: 10 µg/ml (1 on the log axis))

antibody concentration at which ELISA is positive [3]: > 2600 ng/mL | antibody concentration at which ELISA is positive [4]: > 2600 ng/mL | EC50 (read off the curve) [26]: ~0.3 µg/mL | antibody concentration at which ELISA is positive [5]: < 40 ng/mL | antibody concentration at which ELISA is positive [8]: 40 to 160 ng/mL | Bmax (O.D. at 450 nm) [10]: 1.05 OD | EC50 [10]: 0.4 nM | Bmax (O.D. at 450 nm) [11]: 0.58 OD | EC50 [11]: 0.26 nM | Bmax (O.D. at 450 nm) [12]: 0.5 OD | EC50 [12]: 1 nM | antibody concentration at which ELISA is positive [13]: < 40 ng/mL | antibody concentration at which ELISA is positive [33]: 160 to 640 ng/mL | antibody concentration at which ELISA is positive [14]: < 40 ng/mL | IC50 [15]: 6.96 nM | IC50 [16]: 28.1 nM | EC50 (read off the curve) [35]: ~0.3 µg/mL | EC50 (read off the curve) [38]: ~0.3 µg/mL
B4: 22E11 (antibody, IgG1, V domains shown)
VH: AVQLVESGGGLVQPKESLKISCAASGFTFSTAAMYWVRQAPGKGLEWVTRIRTKPNNYATYYADSVKGRFTISRDDSKSMVYLQMDNLKTEDTAMYYCTADYYDGTPFAYWGQGTLVTVSS
VL: AVVMTQTPVSLSVSLGGQVSISCRSSQSLVHNNGITYLSWYLQKPGQSPQLPIYKVSNRFSGFSDRFSGGGSGTDFTLKISRVEPDDLGLYYCGQGTQYPYTFGAGTKLELK
notes: also called clone 22E11
binding result [36]: no binding (tested: 10 µg/ml (1 on the log axis)) | binding result [37]: no binding (tested: 10 µg/ml (1 on the log axis))

From patent publication US20230074436A1 (DENALI THERAPEUTICS, published 2023)
